Experimental findings from patent US20260028391A1 are described below.

For assay [1], the target named is fusion glycoprotein (F) of the MPV used in the neutralization of Table 34 (metapneumovirus). The experiment in a line: cell-based or functional assay.
The target of assay [2] is RSV fusion glycoprotein (RSV-F) of the RSV used in the neutralization of Table 33 (respiratory syncytial virus, strain not stated). Put plainly: cell-based or functional assay.
Assay [3] deals with RSV fusion glycoprotein (RSV-F) (respiratory syncytial virus (strain not stated)). Put plainly: SPR; sensors loaded with RSV-F, mAb in solution (Experiment 2). (In SPR one partner is held on a chip, and binding of the other changes the refractive index at the surface.)
Assay [4] deals with fusion glycoprotein of RSV A2 BPR-344-00 (BEI NR-12149) (respiratory syncytial virus A2) (UniProt P03420). The experiment in a line: cell-based or functional assay.
Assay [5] addresses fusion glycoprotein of the RSV used in the neutralization assay of Example 1 (respiratory syncytial virus (strain not stated)). The experiment in a line: cell-based or functional assay.
The target of assay [6] is fusion glycoprotein of RSV B1 BPR-348-00 (BEI NR-4052) (respiratory syncytial virus B1) (UniProt O36634). Put plainly: cell-based or functional assay.
Assay [7] deals with MPV fusion glycoprotein without the D280N mutation (MPV-F D280) (metapneumovirus). Put plainly: SPR; F protein loaded on streptavidin sensors, mAb in solution.
Assay [8] concerns the target RSV fusion glycoprotein (RSV-F) (respiratory syncytial virus). The description is as above.
Assay [9] deals with MPV fusion glycoprotein with the D280N mutation (MPV-F N280) (metapneumovirus). The assay is described as above.
The target of assay [10] is RSV fusion glycoprotein (RSV-F) of RSV-A (A2) (respiratory syncytial virus A, strain A2) (UniProt P03420). The experiment in a line: cell-based or functional assay.
Assay [11] concerns the target RSV fusion glycoprotein (RSV-F) of RSV-B (B1) (respiratory syncytial virus B, strain B1) (UniProt O36634). Put plainly: cell-based or functional assay.
The target of assay [12] is RSV F A, A2 Ref (RSV A, strain A2) (UniProt P03420). Put plainly: FACS, % binding to RSV F A variants.
Assay [13] concerns the target RSV F A N208Y-N671I (RSV A, strain A2) (UniProt P03420). The experiment in a line: FACS, % binding to RSV F A variants. A general note: Flow cytometry measures light scatter and fluorescence of single cells or particles in a stream.
The target in assay [14] is RSV F A S433P-G446E (RSV A, strain A2) (UniProt P03420). Put plainly: FACS, % binding to RSV F A variants.
Assay [15] deals with RSV F A L203I (RSV A, strain A2) (UniProt P03420). Put plainly: FACS, % binding to RSV F A variants.
Assay [16] has as its target RSV F A S433P (RSV A, strain A2) (UniProt P03420). The experiment in a line: FACS, % binding to RSV F A variants.
Assay [17] has as its target RSV F A G446E (RSV A, strain A2) (UniProt P03420). Put plainly: FACS, % binding to RSV F A variants.
Assay [18] has as its target RSV F A S443P-K445N (RSV A, strain A2) (UniProt P03420). Put plainly: FACS, % binding to RSV F A variants.
The target of another assay is RSV F B S443P (RSV B). Put plainly: FACS, % binding to RSV F B variants.
The next assay deals with RSV F B N208D (RSV B). Put plainly: FACS, % binding to RSV F B variants.
The target of assay [19] is RSV F B K68N-N201S (RSV B). The experiment in a line: FACS, % binding to RSV F B variants.
In another assay the target is RSV F B, B Ref (RSV B). The experiment in a line: FACS, % binding to RSV F B variants.
Assay [20] addresses RSV F B K68N-N208S (RSV B). The experiment in a line: FACS, % binding to RSV F B variants.
For another assay, the target named is RSV F B N201S (RSV B). The experiment in a line: FACS, % binding to RSV F B variants.
A further assay has as its target RSV F B N208S (RSV B). Put plainly: FACS, % binding to RSV F B variants.
Assay [21] concerns the target RSV A fusion glycoprotein (F), virus of the neutralisation assays of Tables 54 and 57 (RSV A). The experiment in a line: cell-based or functional assay.
The target of assay [22] is RSV A Randall fusion glycoprotein (F) (RSV A, strain Randall). The experiment in a line: cell-based or functional assay.
The target in assay [23] is MPV fusion glycoprotein (MPV-F) of MPV-A2 (CAN97-83) (human metapneumovirus, strain CAN97-83) (UniProt Q6WB98). Put plainly: cell-based or functional assay.
The target in assay [24] is RSV-B B9320 F protein (RSV B, strain B9320). Put plainly: cell-based or functional assay.
Assay [25] addresses fusion glycoprotein of the MPV D280 used in the neutralization assay of Example 3 (metapneumovirus (strain not stated)). Put plainly: cell-based or functional assay.
Assay [26] addresses fusion glycoprotein of Human Metapneumovirus-GFP CAN97-83 (Vira Tree M121) (human metapneumovirus CAN97-83) (UniProt Q6WB98). Put plainly: cell-based or functional assay.
The target in assay [27] is fusion glycoprotein of Human metapneumovirus-TN/96-213 (BEI NR-22243) (human metapneumovirus TN/96-213). Put plainly: cell-based or functional assay.
In assay [28] the target is fusion glycoprotein (F) of RSV B/9727 (respiratory syncytial virus B/9727). The experiment in a line: cell-based or functional assay.
The target in assay [29] is MPV fusion glycoprotein (MPV-F) of MPV-B2 (TN/96-213) (human metapneumovirus, strain TN/96-213). Put plainly: cell-based or functional assay.
Assay [30] addresses fusion glycoprotein (F) of RSV A/A2/61 (respiratory syncytial virus A/A2/61) (UniProt P03420). The experiment in a line: cell-based or functional assay.
For assay [31], the target named is RSV fusion glycoprotein (RSV-F) (respiratory syncytial virus (strain not stated)). The experiment in a line: SPR; sensors loaded with F protein, mAb in solution.
Assay [32] deals with RSV fusion glycoprotein (RSV-F), pre-fusion conformation, recombinant protein loaded on sensors (respiratory syncytial virus (RSV), strain not stated). The experiment in a line: ELISA-type titration, OD 405 nm, on Pre-F. Background: ELISA stands for enzyme-linked immunosorbent assay.
In assay [33] the target is RSV B 9719/09 fusion glycoprotein (F) (RSV B, strain 9719/09). The experiment in a line: cell-based or functional assay.

Chain of MPE8 (antibody) (VH): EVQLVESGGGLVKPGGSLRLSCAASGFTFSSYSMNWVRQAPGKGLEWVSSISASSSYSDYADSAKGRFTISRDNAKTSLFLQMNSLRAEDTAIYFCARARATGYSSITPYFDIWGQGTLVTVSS
Chain of MPE8 (antibody) (VL): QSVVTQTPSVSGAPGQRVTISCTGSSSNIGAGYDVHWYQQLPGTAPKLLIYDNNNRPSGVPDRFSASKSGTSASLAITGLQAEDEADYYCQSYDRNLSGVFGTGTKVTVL
Chain of palivizumab (antibody) (VH): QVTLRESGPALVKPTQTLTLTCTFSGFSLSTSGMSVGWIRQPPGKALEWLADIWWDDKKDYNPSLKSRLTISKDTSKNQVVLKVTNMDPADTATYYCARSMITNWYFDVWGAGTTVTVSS
Chain of palivizumab (antibody) (VL): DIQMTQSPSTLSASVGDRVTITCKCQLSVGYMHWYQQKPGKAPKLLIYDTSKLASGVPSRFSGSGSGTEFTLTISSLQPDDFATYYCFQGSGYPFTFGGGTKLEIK

In turn, D25-rIgG1 (antibody) registered an IC50 (ng/mL) in neutralization against MPV in [1] of over 2000 ng/mL. For the same substance, the IC50 (ng/mL) in neutralization against RSV in assay [2] was determined as 0.929 ng/mL.

One may read the Kd as a measure of binding affinity in units of concentration. A lower Kd goes with tighter binding. As to MEDI8897 (antibody), the Kd in assay [3] was determined as 0.001 nM; in assay [7], 100 nM; in assay [8] it was 0.001 nM; in assay [9] it was 100 nM. For the same substance, the RSV Neutralization by MPK44 and MPK65-v2 - IC50 amounted to 0.0002 µg/mL in [4] and 0.0004 µg/mL in assay [6]. In addition, the RSV and MPV Neutralization (IC50 ng/ml) worked out at 0.208 ng/mL in assay [4] and 0.447 ng/mL in assay [6]. Further, the RSV Neutralization - IC50 in [5] was 0.0008 µg/mL.

“MEDI8897-rIgG1-YTE (nirsevimab) (antibody)” came in with an IC50 (ng/mL) in neutralization against MPV in assay [1] of over 2000 ng/mL. In addition, the Neutralization (IC50, ng/ml) in assay [10] worked out at 0.2 ng/mL; in assay [11], 0.4 ng/mL. The IC50 (ng/mL) in neutralization against RSV in assay [2] stood at 0.549 ng/mL.

MK-1654-rIgG1m17,1-YTE (antibody): the % binding worked out at 83.7% in assay [12]; 43.1% in assay [13]; 1.04% in [14]; 62.6% in assay [15]; 7.14% in assay [16]; 0.049% in assay [17]. In addition, the % binding in assay [18] turned out to be 0.11%; in the assay with RSV F B S443P (RSV B), 22.6%; with RSV F B N208D (RSV B), 63.1%; in assay [19], 66.7%; with RSV F B, B Ref (RSV B), 63.4%; in assay [20], 65.7%. Besides, the results for the % binding with RSV F B N201S (RSV B) and with RSV F B N208S (RSV B) were 64.7% and 64.3%, respectively. In assay [21], this substance gave an IC50, neutralization of RSVA of 0.00461 µg/mL.

A word on the EC50 (read off the curve): it is the concentration that produces a half-maximal response. In turn, MPE8 (antibody) came in with an RSV IC50 (ng/ml), neutralization of A/Randall in assay [22] of 22 ng/mL. The Neutralization (IC50, ng/ml) in assay [23] came out at 12.6 ng/mL; in assay [10] it was 6 ng/mL; in assay [11], 3.7 ng/mL; in assay [29], 23.6 ng/mL. In addition, the RSV IC50 (ng/ml), neutralization of B/9320 in assay [24] is 3.2 ng/mL. In addition, in assay [1], the IC50 (ng/mL) in neutralization against MPV came to 11 ng/mL. Moreover, the RSV and MPV Neutralization (IC50 ng/ml) was found to be 6.01 ng/mL in [4], 12.6 ng/mL in [26], 23.6 ng/mL in [27] and 3.71 ng/mL in assay [6]. The MPV D280 Neutralization - IC50 in assay [25] amounted to 0.0069 µg/mL. This substance returned an RSV Neutralization - IC50 in assay [5] of 0.0153 µg/mL. In assay [28], this substance gave an RSV IC50 (ng/ml), neutralization of B/9727 of 16.9 ng/mL. In [2], the IC50 (ng/mL) in neutralization against RSV stood at 12.2 ng/mL. Moreover, in [30], the RSV IC50 (ng/ml), neutralization of A/A2 was determined as 126 ng/mL. Besides, the Kd in [31] is 0.001 nM; in assay [7] it was 2.5 nM; in [8], 0.001 nM; in [9], 100 nM. The EC50 (read off the curve) in assay [32] worked out at 0.03 µg/mL.

As to Palivizumab (antibody), the IC50, virus neutralization was 0.0786 µg/mL in assay [33] and 0.122 µg/mL in assay [22].

On to palivizumab (antibody), for which the Kd in assay [3] and in assay [8] was 2.6 nM in each case. This substance also gave an RSV Neutralization - IC50 in [5] of 0.156 µg/mL.

With palivizumab-rIgG1 (antibody), the IC50 (ng/mL) in neutralization against MPV in assay [1] was over 2000 ng/mL. In [2], this substance gave an IC50 (ng/mL) in neutralization against RSV of 55.2 ng/mL.
